The target in this assay is HaloTag-NLpep86 fusion proteins (internal fusions). Description: luminescence complementation in transfected HeLa cells.

NLpoly11S displayed an efficiency of structural complementation relative to N- or C-terminal NLpep86 fusions to HaloTag of 1 to 40%.

The values are drawn from US20190352623A1.
